Results on four molecules are retold here after patent US20100272731A1 (SCHERING, published 2010).

The term Kd denotes the equilibrium constant for the complex coming apart.

Values joined by “and” are separate entries in the source; they are usually repeats but may differ in a detail not shown here. Identical values can stand only once.

Test [1] addresses T1, human IL-23 (human, UniProt P29460 23-328).
T1 sequence 1: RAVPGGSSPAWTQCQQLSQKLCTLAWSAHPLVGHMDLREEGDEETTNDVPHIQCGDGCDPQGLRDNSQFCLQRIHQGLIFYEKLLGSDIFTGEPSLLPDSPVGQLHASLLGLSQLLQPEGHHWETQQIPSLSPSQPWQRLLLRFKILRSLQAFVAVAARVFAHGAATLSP
T1 sequence 2: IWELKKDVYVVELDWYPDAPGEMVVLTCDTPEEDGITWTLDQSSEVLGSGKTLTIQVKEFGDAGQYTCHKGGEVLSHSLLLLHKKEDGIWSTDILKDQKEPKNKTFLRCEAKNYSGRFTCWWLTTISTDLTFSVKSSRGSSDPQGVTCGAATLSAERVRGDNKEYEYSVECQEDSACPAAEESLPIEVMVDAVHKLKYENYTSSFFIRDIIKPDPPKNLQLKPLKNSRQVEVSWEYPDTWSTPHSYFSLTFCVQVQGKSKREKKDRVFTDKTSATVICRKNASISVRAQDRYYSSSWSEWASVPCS
The test can be described thus: cell-based or functional assay.

The target in test [2] is T1, human IL-23. The test can be described thus: cell-based or functional assay. The source holds these as a separate data set.
Test [3] has as its target T1, human IL-23. The test can be described thus: BIAcore (SPR), antibody amine-coupled to CM5 chip, IL-23 as analyte; first replicate determination. How it is done: (§1) BIAcore determinations are performed essentially as described at Example 4 of commonly assigned U.S. Patent Application Publication No. 2007/0048315. Briefly, ligands (anti-IL-23 mAbs) are immobilized on a BlAcore CM5 sensor chip using standard amine-coupling procedure. IL-23 is diluted in PBS to produce various concentrations. Kinetic constants for the various interactions are determined using BIAevaluation software 3.1. The Kd is determined using the calculated dissociation and association rate constants.

The target of test [4] is T1, human IL-23. The test can be described thus: BIAcore (SPR), antibody amine-coupled to CM5 chip, IL-23 as analyte; second replicate determination. The protocol:
as §1
Table 4 provides the Kd values as determined by BlAcore, including replicate determinations.
Background: Surface plasmon resonance follows binding to a sensor surface in real time, without labels.

The target of test [5] is T1, human IL-23. The test can be described thus: cell-based or functional assay. The source holds these as a separate data set.
For test [6], the target named is T1, human IL-23. Put plainly: BIAcore (SPR), essentially as in Example 4. How it is done: as §1
Test [7] addresses T1, human IL-23. The test can be described thus: BIAcore (SPR), antibody amine-coupled to CM5 chip, IL-23 as analyte. How it is done:
as §1

Test [8] has as its target T2, non-linked (native) human IL-23 comprising two disulfide-linked chains, human p19 and human p40 (human, UniProt P29460 23-328).
T2 sequence 1: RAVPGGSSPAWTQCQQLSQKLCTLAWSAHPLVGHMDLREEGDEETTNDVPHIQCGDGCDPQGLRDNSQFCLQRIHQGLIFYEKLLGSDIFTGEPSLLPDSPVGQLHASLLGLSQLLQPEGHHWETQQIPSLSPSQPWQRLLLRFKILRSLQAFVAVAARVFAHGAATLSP
T2 sequence 2: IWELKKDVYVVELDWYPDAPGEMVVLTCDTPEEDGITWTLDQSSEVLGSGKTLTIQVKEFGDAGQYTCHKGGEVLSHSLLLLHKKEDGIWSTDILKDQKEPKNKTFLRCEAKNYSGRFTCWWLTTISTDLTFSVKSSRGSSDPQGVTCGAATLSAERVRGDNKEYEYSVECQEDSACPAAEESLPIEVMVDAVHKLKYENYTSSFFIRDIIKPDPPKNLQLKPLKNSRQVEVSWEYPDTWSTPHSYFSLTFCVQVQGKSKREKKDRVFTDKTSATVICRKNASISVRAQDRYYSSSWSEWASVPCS
The test can be described thus: KinExA, antibody pre-incubated with native human IL-23 in solution; third replicate determination. The protocol: (§2) The equilibrium dissociation constant (Kd) for anti human IL-23 antibodies is determined using the KinExA 3000 instrument. Sapidyne Instruments Inc., Boise Id., USA. KinExA uses the principle of the Kinetic Exclusion Assay method based on measuring the concentration of uncomplexed antibody in a mixture of antibody, antigen and antibody-antigen complex. The concentration of free antibody is measured by exposing the mixture to a solid-phase immobilized antigen for a very brief period of time. In practice, this is accomplished by flowing the solution phase antigen-antibody mixture past antigen-coated particles trapped in a flow cell. Data generated by the instrument are analyzed using custom software. Equilibrium constants are calculated using a mathematical theory based on the following assumptions: […]
(§3) Binding of anti-IL-23p19 antibodies is assessed in a competition binding assay, in which antibodies are pre-incubated with non-linked (native) human IL-23 comprising two disulfide-linked chains, human p19 (SEQ ID NO: 47) and human p40 (GenBank Accession No. P29460), at a series of concentrations. […] The amount of antibody captured by the PMMA particles is then detected using a fluorescently labeled secondary antibody.
(In general: Kinetic exclusion samples the free partner from a solution-phase mixture.)

For test [9], the target named is T2, non-linked (native) human IL-23 …. Put plainly: KinExA, antibody pre-incubated with native human IL-23 in solution; fourth replicate determination. The protocol:
as §2, §3

For test [10] the target is unchanged. The test can be described thus: KinExA, antibody pre-incubated with native human IL-23 in solution; second replicate determination. The protocol: as §2, §3
The target is the same in test [11]. Put plainly: KinExA, antibody pre-incubated with native human IL-23 in solution; first replicate determination (64 ± 40). How it is done:
as §2, §3

The target of test [12] is T1, human IL-23. Put plainly: BIAcore (SPR), antibody amine-coupled to CM5 chip, IL-23 as analyte; first determination, lower end of range 72-104. The protocol: as §1
Test [13] has as its target T1, human IL-23. The test can be described thus: BIAcore (SPR), antibody amine-coupled to CM5 chip, IL-23 as analyte; first determination, upper end of range 72-104. The protocol:
as §1

Test [14] concerns the target T1, human IL-23. Put plainly: BIAcore (SPR), antibody amine-coupled to CM5 chip, IL-23 as analyte; third determination, lower end of range 81-129. How it is done:
as §1

The target in test [15] is T1, human IL-23. The test can be described thus: BIAcore (SPR), antibody amine-coupled to CM5 chip, IL-23 as analyte; third determination, upper end of range 81-129. How it is done: as §1
For test [16], the target named is T1, human IL-23. Put plainly: BIAcore (SPR), antibody amine-coupled to CM5 chip, IL-23 as analyte; second determination, lower end of range 68-100. The protocol: as §1
Test [17] has as its target T1, human IL-23. Put plainly: BIAcore (SPR), antibody amine-coupled to CM5 chip, IL-23 as analyte; second determination, upper end of range 68-100. How it is done: as §1

B1: murine antibody 13B8 (mouse IgG1/kappa) (antibody, V domains shown)
VH: HVQLQQSGPELVRPGASVELSCKASGYIFITYWMTWMKQRPGQGLEWIGQIFPASGSADYNEMFEGKATLTVDTSSNTAYMQLSSLTSEDSAVYFCARGGGGFAYWGQGTLVTVSA
VL: DIQMTQSPASLSASVGETVTITCRTSENIYSYLAWYQQKQGKSPQLLVYNAKTLAEGVPSRFSGSGSGTQFSLKINRLQPEDFGRYFCQHHYGIPFTFGSGTKLEIKR
notes: also called m13B8; mouse 13B8
Consider B1, for which the “IC50 for blocking of Ba/F3 cell proliferation” value (“IC50 for blocking” below) in test [1] stood at 0.7 nM. In addition, in [2], the “Splenocyte assay IC50 (IL-17 production by mouse splenocytes)” value (“Splenocyte assay IC50” below) is 0.064 nM and 0.028 nM and 0.054 nM. The equilibrium dissociation constant (Kd) in test [3] was determined as 0.173 nM; in test [4], 0.228 nM.

B2: humanized anti-IL-23p19 antibody 13B8-b (antibody, human IgG1, kappa, V domains shown)
VH: QVQLVQSGAEVKKPGASVKVSCKASGYIFITYWMTWVRQAPGQGLEWMGQIFPASGSADYNEKFEGRVTMTTDTSTSTAYMELRSLRSDDTAVYYCARGGGGFAYWGQGTLVTVSS
VL: DIQMTQSPSSLSASVGDRVTITCRTSENIYSYLAWYQQKPGKAPKLLIYNAKTLAEGVPSRFSGSGSGTDFTLTISSLQPEDFATYYCQHHYGIPFTFGQGTKVEIKR
notes: also called hum13B8-b; Hum 13B8-b
As for B2, in test [5], the “IC50 in the Ba/F3 proliferation assay (340 pM IL-23)” value turned out to be 187 pM; the “IC50 in the KIT225 STAT-3 phosphorylation assay (138 pM human IL-23)” value was found to be 130 pM; the “IC50 in the human splenocyte assay (IFN-γ production, 170 pM human IL-23)” value lay within 0.059 to 0.144 nM. Also, the “IC50 for blocking” value in [1] was 1.2 nM and 1.1 nM. In addition, the “Splenocyte assay IC50” value in test [2] was 0.11 nM and 0.221 nM. This molecule also displayed a dissociation constant Kd in [6] of 0.297 nM. Also, in test [7], the Kd was 0.077 nM and 0.129 nM and 0.069 nM and 0.116 nM.

B3: humanized anti-IL-23p19 antibody 13B8-a (antibody, human IgG1, kappa, V domains shown)
VH: QVQLVQSGAEVKKPGASVKVSCKASGYIFITYWMTWVRQAPGQGLEWMGQIFPASGSADYNEMFEGRVTMTTDTSTSTAYMELRSLRSDDTAVYYCARGGGGFAYWGQGTLVTVSS
VL: DIQMTQSPSSLSASVGDRVTITCRTSENIYSYLAWYQQKPGKAPKLLIYNAKTLAEGVPSRFSGSGSGTDFTLTISSLQPEDFATYYCQHHYGIPFTFGQGTKVEIKR
notes: also called hum13B8-a; h13B8-a
For the molecule B3, the “IC50 for blocking” value in test [1] came to 1.1 nM. In addition, the dissociation constant Kd in [8] is 0.365 nM; in test [9] it was 0.447 nM; in test [10], 0.11 nM; in [11] it was 0.064 nM; in [12], at least 0.072 nM; in [13] it was at most 0.104 nM. The Kd in test [14] was at least 0.081 nM; in test [15] it was at most 0.129 nM; in [16] it was at least 0.068 nM; in test [17], at most 0.1 nM.

B4: humanized anti-IL-23p19 antibody 13B8-c (antibody, human IgG1, kappa, V domains shown)
VH: QVQLVQSGAEVKKPGASVKVSCKASGYIFITYWMTWVRQAPGQGLEWMGQIFPASGSADYAQKLQGRVTMTTDTSTSTAYMELRSLRSDDTAVYYCARGGGGFAYWGQGTLVTVSS
VL: DIQMTQSPSSLSASVGDRVTITCRTSENIYSYLAWYQQKPGKAPKLLIYNAKTLAEGVPSRFSGSGSGTDFTLTISSLQPEDFATYYCQHHYGIPFTFGQGTKVEIKR
notes: also called hum13B8-c; h13B8-c
Consider B4, for which the “IC50 for blocking” value in [1] was 1.1 nM and 2.2 nM. Also, in test [2], the “Splenocyte assay IC50” value turned out to be 0.515 nM. Moreover, in test [7], the Kd fell in the range of 0.092 to 0.153 nM.
